Results: patent US20180319855A1, “GENETICALLY MUTATED AEQUORIN-BASED BIOSENSORS WITH EXTRA SENSITIVITY TO CALCIUM AND IMPROVED BIOLUMINESCENCE INTENSITY” (CENTRE NATIONAL DE LA RECHERCHE SCIENTIFIQUE (CNRS), priority 2015, published 2018)
Several values for one entry are separate records, joined by “and”; a condition that tells them apart may be missing. Equal entries are not always repeated. Where two headings read alike, the source gives them in different places.

Columns and labels:
[1] = Ca2+ sensitivity curves of reconstituted photoproteins (L/Lmax vs free Ca2+); type: biochemical; conditions: for EC50: redquorin series, CitA, GA, read-out: Calcium sensitivity, EC50; for Relative intensity at pCa 6.5 / Relative intensity at pCa 7.2: relative to Redq
Summary of the method: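 Purified apoaequorin/redquorin mutants reconstituted overnight at 4 °C with 5 μM CLZ-f or native CLZ, then moved to zero-Ca2+ MOPS/KCl/EGTA buffer, pH 7.2. Luminescence in EGTA-buffered free-Ca2+ solutions, then saturating CaCl2 to obtain Lmax; EC50 from variable-slope sigmoidal fit of L/Lmax.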

endogenous P2Y2 receptor = test: Assay of activation of endogenous P2Y2 receptor by ATP in CHO cells stably expressing photoproteins; type: cell-based; conditions: CHO cells stably expressing the sensor; for EC50: ATP dose-response, read-out: EC50 (half-maximal effective concentration of ATP for P2Y2 activation)
Experimental: Stably prepared CHO cells were loaded with 5 μM coelenterazine in 130 mM NaCl, 5 mM KCl, 1 mM MgCl2, 2 mM CaCl2, 5 mM NaHCO3, 20 mM N-(2-hydroxyethyl) piperazine-N′-ethanesulfonic acid (HEPES), pH 7.4 for 4 h at ambient temperature.
To produce stable CHO cell lines, the cells transfected with GA and Redquorin variant plasmids were seeded on six-well plates and grown in the same medium with addition of Geneticin sulfate (G418) (Gibco, UK) at 1 mg/ml under the same conditions with replacement of the medium by fresh medium every 2 days. After 7-10 days of selection, CHO cells were transferred into a medium without antibiotic. To select clones with the highest bioluminescence activity, one run of limiting dilution was performed. CHO cells after G418 selection were seeded on 96-well plates (approximately 0.5 cells per well) and grown in DMEM/F12 medium supplemented with 10% fetal calf serum at 37° C., 5% CO2 for up to 80-90% confluence. Before the bioluminescence measurements, the plates with monoclones of CHO cells expressing the corresponding photoprotein were duplicated and grown for up to 90-100% confluence. Then, the medium was removed and cells were loaded with coelenterazine, and bioluminescence in each well was measured according to the procedure described earlier. As a result, the CHO cell clones with the highest bioluminescence activity were selected.
Assay of Activation of Endogenous P2Y2 Receptor in CHO Cells
The CHO cell lines stably expressing each photoprotein were used in assay of activation of endogenous P2Y2 receptor by ATP. The day before the measurements, the corresponding cells were seeded on 96-well plates with DMEM/F12 medium supplemented with 10% fetal calf serum and were grown at 37° C. with 5% CO2 for up to 90-100% confluence. Then, the medium was replaced by 100 μl of coelenterazine solution per well (5 μM coelenterazine in 130 mM NaCl, 5 mM KCl, 1 mM MgCl2, 2 mM CaCl2, 5 mM NaHCO3, 20 mM HEPES, pH7.4) and the cells were incubated at 23° C. for 4 h. Emission from photoproteins in the cells was measured using a Mithras LB 940 plate luminometer. The ATP was injected at a given concentration to trigger an intracellular Ca^2+ response in the cells and the measurement started immediately. The bioluminescence was integrated over a time interval of 0.05 s for 30 s.

EC50 ([1]; CLZ-f) [nM]	EC50 ([1]; CLZ-native) [nM]	EC50 (endogenous P2Y2 receptor) [nM]	Molecule	Relative intensity at pCa 6.5 ([1]; CLZ-f)	Relative intensity at pCa 7.2 ([1]; CLZ-f)	Relative intensity at pCa 6.5 ([1]; CLZ-f, listed as Redq/QT)	Relative intensity at pCa 6.5 ([1]; CLZ-native)	Relative intensity at pCa 7.2 ([1]; CLZ-native)	Relative intensity at pCa 6.5 ([1]; CLZ-native, listed as Redq/QT)	[ATP] DL (detection limit) (endogenous P2Y2 receptor)
296 ± 13	478 ± 39	1700	Redq/Q159T: aporedquorin (tdTomato-aequorin fusion) mutant Q159T (SEQ ID NO:22) (protein, mutant aequorin) MVSKGEEVIKEFMRFKVRMEGSMNGHEFEIEGEGEGRPYEGTQTAKLKVTKGGPLPFAWDILSPQFMYGSKAYVKHPADIPDYKKLSFPEGFKWERVMNFEDGGLVTVTQDSSLQDGTLIYKVKMRGTNFPPDGPVMQKKTMGWEASTERLYPRDGVLKGEIHQALKLKDGGHYLVEFKTIYMAKKPVQLPGYYYVDTKLDITSHNEDYTIVEQYERSEGRHHLFLGHGTGSTGSGSSGTASSEDNNMAVIKEFMRFKVRMEGSMNGHEFEIEGEGEGRPYEGTQTAKLKVTKGGPLPFAWDILSPQFMYGSKAYVKHPADIPDYKKLSFPEGFKWERVMNFEDGGLVTVTQDSSLQDGTLIYKVKMRGTNFPPDGPVMQKKTMGWEASTERLYPRDGVLKGEIHQALKLKDGGHYLVEFKTIYMAKKPVQLPGYYYVDTKLDITSHNEDYTIVEQYERSEGRHHLFLSGFDNPRWIGRHKHMFNFLDVNHNGKISLDEMVYKASDIVINNLGATPEQAKRHKDAVEAFFGGAGMKYGVETDWPAYIEGWKKLATDELEKYAKNEPTLIRIWGDALFDIVDKDQNGAITLDEWKAYTKAAGIIQSSEDCEETFRVCDIDESGTLDVDEMTRQHLGFWYTMDPACEKLYGGAVP	11.0	2.8	11	13.0	7.1	13	398 nM and 398 ± 17 nM
290 ± 18	680 ± 33	2300 ± 200	Redq/Q159D: aporedquorin (tdTomato-aequorin fusion) mutant Q159D (SEQ ID NO:21) (protein, mutant aequorin) MVSKGEEVIKEFMRFKVRMEGSMNGHEFEIEGEGEGRPYEGTQTAKLKVTKGGPLPFAWDILSPQFMYGSKAYVKHPADIPDYKKLSFPEGFKWERVMNFEDGGLVTVTQDSSLQDGTLIYKVKMRGTNFPPDGPVMQKKTMGWEASTERLYPRDGVLKGEIHQALKLKDGGHYLVEFKTIYMAKKPVQLPGYYYVDTKLDITSHNEDYTIVEQYERSEGRHHLFLGHGTGSTGSGSSGTASSEDNNMAVIKEFMRFKVRMEGSMNGHEFEIEGEGEGRPYEGTQTAKLKVTKGGPLPFAWDILSPQFMYGSKAYVKHPADIPDYKKLSFPEGFKWERVMNFEDGGLVTVTQDSSLQDGTLIYKVKMRGTNFPPDGPVMQKKTMGWEASTERLYPRDGVLKGEIHQALKLKDGGHYLVEFKTIYMAKKPVQLPGYYYVDTKLDITSHNEDYTIVEQYERSEGRHHLFLSGFDNPRWIGRHKHMFNFLDVNHNGKISLDEMVYKASDIVINNLGATPEQAKRHKDAVEAFFGGAGMKYGVETDWPAYIEGWKKLATDELEKYAKNEPTLIRIWGDALFDIVDKDQNGAITLDEWKAYTKAAGIIQSSEDCEETFRVCDIDESGDLDVDEMTRQHLGFWYTMDPACEKLYGGAVP	23.9	14.9		9.1	13.2		417 ± 16 nM
